To fix the notation:
B1: sp¦P51159¦RB27A_HUMAN (protein, UniProt P51159 2-221, looked up)
Ras-related protein Rab-27A: SDGDYDYLIKFLALGDSGVGKTSVLYQYTDGKFNSKFITTVGIDFREKRVVYRASGPDGATGRGQRIHLQLWDTAGQERFRSLTTAFFRDAMGFLLLFDLTNEQSFLNVRNWISQLQMHAYCENPDIVLCGNKSDLEDQRVVKEEEAIALAEKYGIPYFETSAANGTNISQAIEMLLDLIMKRMERCVDKSWIPEGVVRSNGHASTDQLSEEKEKGACGC
B2: sp¦Q9BTT0¦AN32E_HUMAN (protein, UniProt Q9BTT0 1-268, looked up)
Acidic leucine-rich nuclear …: MEMKKKINLELRNRSPEEVTELVLDNCLCVNGEIEGLNDTFKELEFLSMANVELSSLARLPSLNKLRKLELSDNIISGGLEVLAEKCPNLTYLNLSGNKIKDLSTVEALQNLKNLKSLDLFNCEITNLEDYRESIFELLQQITYLDGFDQEDNEAPDSEEEDDEDGDEDDEEEEENEAGPPEGYEEEEEEEEEEDEDEDEDEDEAGSELGEGEEEVGLSYLMKEEIQDEEDDDDYVEEGEEEEEEEEGGLRGEKRKRDAEDDGEEEDD
B3: sp¦Q8WU39¦MZB1_HUMAN (protein, UniProt Q8WU39 23-189, looked up)
Marginal zone B- and …: DRAPLTATAPQLDDEEMYSAHMPAHLRCDACRAVAYQMWQNLAKAETKLHTSNSGGRRELSELVYTDVLDRSCSRNWQDYGVREVDQVKRLTGPGLSEGPEPSISVMVTGGPWPTRLSRTCLHYLGEFGEDQIYEAHQQGRGALEALLCGGPQGACSEKVSATREEL
B4: sp¦Q9NVJ2¦ARL8B_HUMAN (protein, UniProt Q9NVJ2 1-186, looked up)
ADP-ribosylation factor-like …: MLALISRLLDWFRSLFWKEEMELTLVGLQYSGKTTFVNVIASGQFSEDMIPTVGFNMRKVTKGNVTIKIWDIGGQPRFRSMWERYCRGVNAIVYMIDAADREKIEASRNELHNLLDKPQLQGIPVLVLGNKRDLPNALDEKQLIEKMNLSAIQDREICCYSISCKEKDNIDITLQWLIQHSKSRRS
B5: sp¦Q9UGP8¦SEC63_HUMAN (protein, UniProt Q9UGP8 1-760, looked up)
Translocation protein SEC63 …: MAGQQFQYDDSGNTFFYFLTSFVGLIVIPATYYLWPRDQNAEQIRLKNIRKVYGRCMWYRLRLLKPQPNIIPTVKKIVLLAGWALFLFLAYKVSKTDREYQEYNPYEVLNLDPGATVAEIKKQYRLLSLKYHPDKGGDEVMFMRIAKAYAALTDEESRKNWEEFGNPDGPQATSFGIALPAWIVDQKNSILVLLVYGLAFMVILPVVVGSWWYRSIRYSGDQILIRTTQIYTYFVYKTRNMDMKRLIMVLAGASEFDPQYNKDATSRPTDNILIPQLIREIGSINLKKNEPPLTCPYSLKARVLLLSHLARMKIPETLEEDQQFMLKKCPALLQEMVNVICQLIVMARNREEREFRAPTLASLENCMKLSQMAVQGLQQFKSPLLQLPHIEEDNLRRVSNHKKYKIKTIQDLVSLKESDRHTLLHFLEDEKYEEVMAVLGSFPYVTMDIKSQVLDDEDSNNITVGSLVTVLVKLTRQTMAEVFEKEQSICAAEEQPAEDGQGETNKNRTKGGWQQKSKGPKKTAKSKKKKPLKKKPTPVLLPQSKQQKQKQANGVVGNEAAVKEDEEEVSDKGSDSEEEETNRDSQSEKDDGSDRDSDREQDEKQNKDDEAEWQELQQSIQRKERALLETKSKITHPVYSLYFPEEKQEWWWLYIADRKEQTLISMPYHVCTLKDTEEVELKFPAPGKPGNYQYTVFLRSDSYMGLDQIKPLKLEVHEAKPVPENHPQWDTAIEGDEDQEDSEGFEDSFEEEEEEEEDDD
B6: sp¦P16615¦AT2A2_HUMAN (protein, UniProt P16615 1-1042, looked up)
Sarcoplasmic/endoplasmic …: MENAHTKTVEEVLGHFGVNESTGLSLEQVKKLKERWGSNELPAEEGKTLLELVIEQFEDLLVRILLLAACISFVLAWFEEGEETITAFVEPFVILLILVANAIVGVWQERNAENAIEALKEYEPEMGKVYRQDRKSVQRIKAKDIVPGDIVEIAVGDKVPADIRLTSIKSTTLRVDQSILTGESVSVIKHTDPVPDPRAVNQDKKNMLFSGTNIAAGKAMGVVVATGVNTEIGKIRDEMVATEQERTPLQQKLDEFGEQLSKVISLICIAVWIINIGHFNDPVHGGSWIRGAIYYFKIAVALAVAAIPEGLPAVITTCLALGTRRMAKKNAIVRSLPSVETLGCTSVICSDKTGTLTTNQMSVCRMFILDRVEGDTCSLNEFTITGSTYAPIGEVHKDDKPVNCHQYDGLVELATICALCNDSALDYNEAKGVYEKVGEATETALTCLVEKMNVFDTELKGLSKIERANACNSVIKQLMKKEFTLEFSRDRKSMSVYCTPNKPSRTSMSKMFVKGAPEGVIDRCTHIRVGSTKVPMTSGVKQKIMSVIREWGSGSDTLRCLALATHDNPLRREEMHLEDSANFIKYETNLTFVGCVGMLDPPRIEVASSVKLCRQAGIRVIMITGDNKGTAVAICRRIGIFGQDEDVTSKAFTGREFDELNPSAQRDACLNARCFARVEPSHKSKIVEFLQSFDEITAMTGDGVNDAPALKKAEIGIAMGSGTAVAKTASEMVLADDNFSTIVAAVEEGRAIYNNMKQFIRYLISSNVGEVVCIFLTAALGFPEALIPVQLLWVNLVTDGLPATALGFNPPDLDIMNKPPRNPKEPLISGWLFFRYLAIGCYVGAATVGAAAWWFIAADGGPRVSFYQLSHFLQCKEDNPDFEGVDCAIFESPYPMTMALSVLVTIEMCNALNSLSENQSLLRMPPWENIWLVGSICLSMSLHFLILYVEPLPLIFQITPLNVTQWLMVLKISLPVILMDETLKFVARNYLEPGKECVQPATKSCSFSACTDGISWPFVLLIMPLVIWVYSTDTNFSDMFWS
B7: sp¦O60488¦ACSL4_HUMAN (protein, UniProt O60488 1-711, looked up)
Long-chain-fatty-acid--CoA …: MKLKLNVLTIILLPVHLLITIYSALIFIPWYFLTNAKKKNAMAKRIKAKPTSDKPGSPYRSVTHFDSLAVIDIPGADTLDKLFDHAVSKFGKKDSLGTREILSEENEMQPNGKVFKKLILGNYKWMNYLEVNRRVNNFGSGLTALGLKPKNTIAIFCETRAEWMIAAQTCFKYNFPLVTLYATLGKEAVVHGLNESEASYLITSVELLESKLKTALLDISCVKHIIYVDNKAINKAEYPEGFEIHSMQSVEELGSNPENLGIPPSRPTPSDMAIVMYTSGSTGRPKGVMMHHSNLIAGMTGQCERIPGLGPKDTYIGYLPLAHVLELTAEISCFTYGCRIGYSSPLTLSDQSSKIKKGSKGDCTVLKPTLMAAVPEIMDRIYKNVMSKVQEMNYIQKTLFKIGYDYKLEQIKKGYDAPLCNLLLFKKVKALLGGNVRMMLSGGAPLSPQTHRFMNVCFCCPIGQGYGLTESCGAGTVTEVTDYTTGRVGAPLICCEIKLKDWQEGGYTINDKPNPRGEIVIGGQNISMGYFKNEEKTAEDYSVDENGQRWFCTGDIGEFHPDGCLQIIDRKKDLVKLQAGEYVSLGKVEAALKNCPLIDNICAFAKSDQSYVISFVVPNQKRLTLLAQQKGVEGTWVDICNNPAMEAEILKEIREAANAMKLERFEIPIKVRLSPEPWTPETGLVTDAFKLKRKELRNHYLKDIERMYGGK
B8: sp¦O96011¦PX11B_HUMAN (protein, UniProt O96011 1-259, looked up)
Peroxisomal membrane protein …: MDAWVRFSAQSQARERLCRAAQYACSLLGHALQRHGASPELQKQIRQLESHLSLGRKLLRLGNSADALESAKRAVHLSDVVLRFCITVSHLNRALYFACDNVLWAGKSGLAPRVDQEKWAQRSFRYYLFSLIMNLSRDAYEIRLLMEQESSACSRRLKGSGGGVPGGSETGGLGGPGTPGGGLPQLALKLRLQVLLLARVLRGHPPLLLDVVRNACDLFIPLDKLGLWRCGPGIVGLCGLVSSILSILTLIYPWLRLKP
B9: sp¦P51148¦RAB5C_HUMAN (protein, UniProt P51148 1-216, looked up)
Ras-related protein Rab-5C: MAGRGGAARPNGPAAGNKICQFKLVLLGESAVGKSSLVLRFVKGQFHEYQESTIGAAFLTQTVCLDDTTVKFEIWDTAGQERYHSLAPMYYRGAQAAIVVYDITNTDTFARAKNWVKELQRQASPNIVIALAGNKADLASKRAVEFQEAQAYADDNSLLFMETSAKTAMNVNEIFMAIAKKLPKNEPQNATGAPGRNRGVDLQENNPASRSQCCSN
B10: sp¦Q9NVA1¦UQCC1_HUMAN (protein, UniProt Q9NVA1 1-299, looked up)
Ubiquinol-cytochrome c …: MALLVRVLRNQTSISQWVPVCSRLIPVSPTQGQGDRALSRTSQWPQMSQSRACGGSEQIPGIDIQLNRKYHTTRKLSTTKDSPQPVEEKVGAFTKIIEAMGFTGPLKYSKWKIKIAALRMYTSCVEKTDFEEFFLRCQMPDTFNSWFLITLLHVWMCLVRMKQEGRSGKYMCRIIVHFMWEDVQQRGRVMGVNPYILKKNMILMTNHFYAAILGYDEGILSDDHGLAAALWRTFFNRKCEDPRHLELLVEYVRKQIQYLDSMNGEDLLLTGEVSWRPLVEKNPQSILKPHSPTYNDEGL
B11: sp¦P27105¦STOM_HUMAN (protein, UniProt P27105 1-288, looked up)
Stomatin: MAEKRHTRDSEAQRLPDSFKDSPSKGLGPCGWILVAFSFLFTVITFPISIWMCIKIIKEYERAIIFRLGRILQGGAKGPGLFFILPCTDSFIKVDMRTISFDIPPQEILTKDSVTISVDGVVYYRVQNATLAVANITNADSATRLLAQTTLRNVLGTKNLSQILSDREEIAHNMQSTLDDATDAWGIKVERVEIKDVKLPVQLQRAMAAEAEASREARAKVIAAEGEMNASRALKEASMVITESPAALQLRYLQTLTTIAAEKNSTIVFPLPIDMLQGIIGAKHSHLG
B12: sp¦Q9Y3A6¦TMED5_HUMAN (protein, UniProt Q9Y3A6 28-229, looked up)
Transmembrane emp24 …: FTPSLDSDFTFTLPAGQKECFYQPMPLKASLEIEYQVLDGAGLDIDFHLASPEGKTLVFEQRKSDGVHTVETEVGDYMFCFDNTFSTISEKVIFFELILDNMGEQAQEQEDWKKYITGTDILDMKLEDILESINSIKSRLSKSGHIQTLLRAFEARDRNIQESNFDRVNFWSMVNLVVMVVVSAIQVYMLKSLFEDKRKSRT

In the first assay the test system is human HL60 cells. Kind of assay: SWATH-MS proteomics, differential protein representation, akirin2 KO vs WT HL60 cells. Particulars: KO vs WT HL60 cells; sheet "Under-represented in KO". In kind it is cell-based. The method in brief:
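First, proteins from wild-type and knockout cells are digested with trypsin by FASP. Next, pooled IDA runs generate a reference ion library. Then six samples of 5 µg each are acquired by data-independent SWATH, and protein areas are normalized to the summed area of all detected proteins.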
With B1, the “Fold Change” value is given as 0.5507 and the “Log (Fold Change)” value is given as -0.2591.
On to B2, for which the “Fold Change” value is 0.5286 and the “Log (Fold Change)” value is -0.2769.
With B3, the “Fold Change” value stood at 0.5261 and the “Log (Fold Change)” value was -0.279.
As for B4, the “Fold Change” value worked out at 0.5417 and the “Log (Fold Change)” value was -0.2663.
Consider B5, for which the “Fold Change” value is on record as 0.5228 and the “Log (Fold Change)” value is reported as -0.2816.
As for B6, the “Fold Change” value is 0.5392 and the “Log (Fold Change)” value is -0.2682.
The matching figures for B7: 0.5384 and -0.2689.
Take B8: the “Fold Change” value amounted to 0.5344 and the “Log (Fold Change)” value was -0.2721.
As for B9, the “Fold Change” value turned out to be 0.5435 and the “Log (Fold Change)” value was -0.2648.
The matching figures for B10: 0.5349 and -0.2718.
Turning to B11, the “Fold Change” value was 0.5492 and the “Log (Fold Change)” value is recorded as -0.2603.

The assay is the same for the next values; noted with them: akirin2 KO vs WT HL60 cells; sheet "Under-represented in KO".
As for B12, the “Fold Change” value came out at 0.2554 and the “Log (Fold Change)” value is reported as -0.5928.

The values are drawn from PMC8298264, “Function of cofactor Akirin2 in the regulation of gene expression in model human neutrophil-like HL60 cells” (Bioscience Reports, 2021).
